Values joined by “and” are separate entries in the source; they are usually repeats but may differ in a detail not shown here. Identical values can stand only once.
How the values were obtained:
[1] = molecular target: Rabbit skeletal muscle actin, monomeric (G-actin) (rabbit) (UniProt P68135); test: SPR
[2] = molecular target: Rabbit skeletal muscle actin, monomeric (G-actin) (rabbit) (UniProt P68135); test: cross-linking
[3] = molecular target: Rabbit skeletal muscle actin, filamentous (F-actin) (rabbit) (UniProt P68135)

Substance	Kd [1]	kon [1]	percent of actin and PfADF1 linked by EDC [2]	filament pitch by negative-stain TEM, similar concentration of PfADF1 [3]
PfADF1.K72A (natural protein)	33 µM	64.2 M⁻¹ s⁻¹		
Plasmodium falciparum actin depolymerizing factor 1 (PfADF1), wild type (natural protein)	3.5 µM	95.9 M⁻¹ s⁻¹	10% and 25%	39.4 nm
